The values below come from patent US20260153518.

Data set [1] has as its target candidate peptide No. 17 (mCXCL-1 positions 1-14, Cys replaced with Ser), 5-carboxyfluorescein labelled.
Data set [2] has as its target candidate peptide No. 16 (mIFN-gamma positions 143-154), 5-carboxyfluorescein labelled.
The target in data set [3] is candidate peptide No. 15 (mIFN-gamma positions 128-141), 5-carboxyfluorescein labelled.
In data set [4] the target is candidate peptide No. 19 (hCXCL-7 positions 76-89), 5-carboxyfluorescein labelled.
Data set [5] has as its target candidate peptide No. 2 (hCCL-14 positions 61-74), 5-carboxyfluorescein labelled.
The target in data set [6] is candidate peptide No. 6 (hIFN-alpha-6 positions 150-161), 5-carboxyfluorescein labelled.
Data set [7] has as its target candidate peptide No. 4 (hIFN-alpha-10 positions 150-161), 5-carboxyfluorescein labelled.
In data set [8] the target is PJ-8 (positive control peptide).
Data set [9] has as its target candidate peptide No. 7 (hIFN-alpha-2 positions 154-165), 5-carboxyfluorescein labelled.
The target of data set [10] is candidate peptide No. 11 (hIFN-gamma positions 126-139), 5-carboxyfluorescein labelled.
Data set [11] addresses candidate peptide No. 5 (hIFN-alpha-6 positions 154-165), 5-carboxyfluorescein labelled.
For data set [12], the target named is PP-2b (positive control peptide).
Data set [13] concerns the target candidate peptide No. 20 (hCXCL-3 positions 1-14, Cys replaced with Ser), 5-carboxyfluorescein labelled.
Data set [14] deals with candidate peptide No. 22 (hCXCL-5 positions 3-15, Cys replaced with Ser), 5-carboxyfluorescein labelled.

B1: human MMP12 (matrix metalloproteinase 12), activated with APMA (protein)
chain: GPVWRKHYITYRINNYTPDMNREDVDYAIRKAFQVWSNVTPLKFSKINTGMADILVVFARGAHGDFHAFDGKGGILAHAFGPGSGIGGDAHFDEDEFWTTHSGGTNLFLTAVHEIGHSLGLGHSSDPKAVMFPTYKYVDINTFRLSADDIRGIQSLYGDPKENQRLPNPDNSEPALCDPNLSFDAVTTVGNKIFFFKDRFFWLKVSERPKTSVNLISSLWPTLPSGIEAAYEIEARNQVFLFKDDKYWLISNLRPEPNYPKSIHSFGFPNFVKKIDAAVFNPRFYRTYFFVDNQYWRYDERRQMMDPGYPKLITKNFQGIGPKIDAVFYSKNKYYYFFQGSNQFEYDFLLQRITKTLKSNSWFGC
Turning to B1, the Cleavage rate (%) in [1] is 98.6%; in [2] it was 61.7%; in [3] it was 10.5%; in [4] it was 26%; in data set [5] it was 56%; in [6] it was 90.3%. The Cleavage rate (%) amounted to 53.5% in [7]; 70.4% in [9]; 100% in data set [10]; 38.5% in data set [11]; 100% in data set [13]; 100% in data set [14]. For the same protein, the “cleavage by MMP12 (UPLC)” value in data set [8] and in data set [12] was “it was confirmed that the two positive controls were cleaved by MMP12 (data is not shown)” in each case.
